The results in this text go back to article PMC10126545 (2023).

Values joined by “and” are separate entries in the source; they are usually repeats but may differ in a detail not shown here. Equal entries are not always repeated.

One may read the koff as the rate constant with which the complex falls apart. A high value points to a short-lived complex. One may read the Kd as the concentration at which binding is half-saturated. A low value points to tighter binding.

Assay in all cases: BLI
For orientation: BLI is a label-free optical method that tracks binding on a fibre tip over time.

Experiment [1] has as its target T1, COBRA P1 HA wild type, CHO expressed, for binding assays (glycosylation at Asn127).
Experiment [2] deals with T1, COBRA P1 HA wild type, CHO expressed, …. This is another data set of the same source.
For experiment [3], the target named is COBRA P1 HA N127D mutant, CHO expressed, for binding assays.

B1: Fab 1F8 (recombinant Fab of the P1-elicited mouse monoclonal antibody 1F8) (Fab, V domains shown)
VH: QVQLQQSGAELMKPGASVKISCKATGYTFSSYWIEWVKQRPGHGLEWIGEILPGSGRTNYDERFKGKATFTADTSSNTAYMQLSSLTSEDSAVYYCARPRIYGMDYWGQGTSVTVSS
VL: DIVLTQSPASLAVSLGQRATISCKASQSVDFDGDTYMSWYQQKPGQPPKLLIYAASKLESGIPARFSGSGSGTDFTLNIHPVEEEDAATYFCQQSNEDPWTFGGGTKLEIK
On to B1, for which the results for the koff in experiment [1] and in experiment [3] were 0.000813 s⁻¹ and 0.000855 s⁻¹, respectively. Further, the Kd in experiment [2] was 2.56 nM and 3.35 nM.
